This test is described as follows: Compaction assay to assess liquefaction of human CF sputum. The note with it: 0.58 mM in diluent, n=6 per treatment; FIG. 2. The protocol: Compaction assay to assess liquefaction of human CF sputum. For all manipulations, CF sputum was handled under a microbiologic hood. rhTrx, r(Cys)hTrx or diluent alone (25 microliters), in relevant concentrations, was added to CF sputum (275 microliters) in a 1.5 ml Eppendorf conical tube and mixed by very brief vortexing. After incubation at 37 degrees C. for 30 min, samples were again briefly mixed and loaded into hematocrit tubes and sealed at both ends. After a 5 minute centrifugation in a hematocrit centrifuge, the percent solids (gel) and percent liquid was determined by direct linear measurement and expressed as percent liquid as follows: 100×liquid/(liquid+solids). For each condition, sputum from at least five different CF patients was measured in triplicate.
Comparison of efficacy with standard of care mucolytic agent (rhDNase). For these studies, relevant concentrations of rhTrx, r(Cys)hTrx and rhDNase were compared by incubation as described above. After 30 minutes, samples were assessed for changes in liquefaction of sputum (compaction assay) and alteration of viscoelasticity. In addition, synergy studies were performed. […] For each condition, sputum from at least five different CF patients were measured in triplicate. […]
Human CF sputum collection. Sputum was obtained from adult and pediatric patients with CF as determined by a health care provider. […]

B1: rhDNase: standard of care CF mucolytic Pulmozyme (rhDNase I; dornase alfa) (protein, UniProt P24855 23-282, looked up)
Deoxyribonuclease-1: LKIAAFNIQTFGETKMSNATLVSYIVQILSRYDIALVQEVRDSHLTAVGKLLDNLNQDAPDTYHYVVSEPLGRNSYKERYLFVYRPDQVSAVDSYYYDDGCEPCGNDTFNREPAIVRFFSRFTEVREFAIVPLHAAPGDAVAEIDALYDVYLDVQEKWGLEDVMLMGDFNAGCSYVRPSQWSSIRLWTSPTFQWLIPDSADTTATPTHCAYDRIVVAGMLLRGAVVPDSALPFNFQAAYGLSDQLAQAISDHYPVEVMLK
As to B1, the “liquefaction of patient sputum / mucus-normalizing potency at equimolar concentrations” value is reported as “more potent than equimolar amounts of NAC”.

For the origin of these results see US12390511B2, “Product and process for mucus viscosity normalization” (ORPRO THERAPEUTICS, INC., priority 2013, dated 2025).
